The source of these data is patent US20100158968A1 (PURDUE RESEARCH FOUNDATION, published 2010).

Holding throughout (test): cell-based or functional assay
For test [1], the target named is T1, mitogen-activated protein kinase-activated protein kinase 2 (human MK2) (human, UniProt P49137 46-400, limits assumed).
Test [2] concerns the target T1, mitogen-activated protein …. This is another data set of the same source.
Test [3] addresses MK3 (mitogen-activated protein kinase-activated protein kinase 3) (human, UniProt Q16644 1-382, limits assumed).
The target of test [4] is T2, PRAK (h) (p38 regulated/activated protein kinase) (human, UniProt Q8IW41 1-473, limits assumed).
T2 sequence (looked up): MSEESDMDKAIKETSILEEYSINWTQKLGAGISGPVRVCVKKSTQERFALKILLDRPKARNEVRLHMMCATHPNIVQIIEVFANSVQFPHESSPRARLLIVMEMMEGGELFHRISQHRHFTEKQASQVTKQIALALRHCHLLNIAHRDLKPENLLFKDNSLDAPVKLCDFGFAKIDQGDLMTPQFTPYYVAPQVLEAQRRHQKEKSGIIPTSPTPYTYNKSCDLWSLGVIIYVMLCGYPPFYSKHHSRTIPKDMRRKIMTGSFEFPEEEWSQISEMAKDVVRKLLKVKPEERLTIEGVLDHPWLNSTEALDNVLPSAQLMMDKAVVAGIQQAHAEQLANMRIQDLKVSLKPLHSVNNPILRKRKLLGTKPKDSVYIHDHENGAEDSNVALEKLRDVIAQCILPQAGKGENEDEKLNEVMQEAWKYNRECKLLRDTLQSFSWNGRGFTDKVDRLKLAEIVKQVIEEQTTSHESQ

The target in test [5] is CaMKI (h) (calcium/calmodulin-dependent protein kinase) (human, UniProt Q14012 1-370, limits assumed).
The target in test [6] is T3, IRAK4 (h) (IL-1 receptor (IL-1R)-associated kinase) (human, UniProt Q9NWZ3 1-460, limits assumed).
T3 sequence (looked up): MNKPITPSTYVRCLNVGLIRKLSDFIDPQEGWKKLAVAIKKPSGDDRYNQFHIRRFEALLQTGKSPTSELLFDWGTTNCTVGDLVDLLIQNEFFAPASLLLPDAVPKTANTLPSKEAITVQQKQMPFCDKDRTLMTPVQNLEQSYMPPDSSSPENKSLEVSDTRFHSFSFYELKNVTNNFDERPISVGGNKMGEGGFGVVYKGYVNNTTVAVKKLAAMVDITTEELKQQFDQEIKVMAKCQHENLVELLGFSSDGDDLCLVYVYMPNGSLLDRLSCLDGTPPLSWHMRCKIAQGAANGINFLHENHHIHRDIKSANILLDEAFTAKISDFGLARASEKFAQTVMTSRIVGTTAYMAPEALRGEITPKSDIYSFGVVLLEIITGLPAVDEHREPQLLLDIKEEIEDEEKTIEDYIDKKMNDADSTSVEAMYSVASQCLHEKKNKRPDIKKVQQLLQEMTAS

The target in test [7] is MLCK (h) (myosin light chain kinase) (human).
Test [8] concerns the target PKBβ (h) (protein kinase B) (human, UniProt P31751 120-481, limits assumed).
Test [9] addresses ROCK-I (h) (Rho-associated serine/threonine kinase) (human, UniProt Q13464 17-535, limits assumed).
The next test has as its target SAPK2a (h) (p38α) (human, UniProt Q16539 1-360).

PKBβ (h) (protein kinase B), sequence (P31751 120-481 limits assumed): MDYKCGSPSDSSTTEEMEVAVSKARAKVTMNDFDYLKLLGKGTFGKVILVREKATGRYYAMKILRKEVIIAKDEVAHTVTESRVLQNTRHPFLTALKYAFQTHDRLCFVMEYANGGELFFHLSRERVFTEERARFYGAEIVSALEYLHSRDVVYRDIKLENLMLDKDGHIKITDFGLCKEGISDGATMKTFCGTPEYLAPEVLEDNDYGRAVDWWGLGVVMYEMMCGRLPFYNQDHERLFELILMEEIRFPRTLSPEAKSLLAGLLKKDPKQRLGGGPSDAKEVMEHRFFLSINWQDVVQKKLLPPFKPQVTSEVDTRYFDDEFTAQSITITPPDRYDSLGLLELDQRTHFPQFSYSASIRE
CaMKI (h) (calcium/calmodulin-dependent protein kinase), sequence (Q14012 whole entry): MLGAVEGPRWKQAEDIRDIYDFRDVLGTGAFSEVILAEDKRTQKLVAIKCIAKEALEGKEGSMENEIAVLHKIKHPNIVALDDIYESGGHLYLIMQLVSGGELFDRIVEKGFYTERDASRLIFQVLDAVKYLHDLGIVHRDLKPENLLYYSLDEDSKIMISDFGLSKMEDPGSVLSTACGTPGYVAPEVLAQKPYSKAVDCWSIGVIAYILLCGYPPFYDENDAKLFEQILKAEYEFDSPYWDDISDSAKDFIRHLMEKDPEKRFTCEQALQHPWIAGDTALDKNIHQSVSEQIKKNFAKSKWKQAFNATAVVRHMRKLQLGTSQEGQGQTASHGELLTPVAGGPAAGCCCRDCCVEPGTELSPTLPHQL
MK3 (mitogen-activated protein kinase-activated protein kinase 3), sequence (Q16644 whole entry): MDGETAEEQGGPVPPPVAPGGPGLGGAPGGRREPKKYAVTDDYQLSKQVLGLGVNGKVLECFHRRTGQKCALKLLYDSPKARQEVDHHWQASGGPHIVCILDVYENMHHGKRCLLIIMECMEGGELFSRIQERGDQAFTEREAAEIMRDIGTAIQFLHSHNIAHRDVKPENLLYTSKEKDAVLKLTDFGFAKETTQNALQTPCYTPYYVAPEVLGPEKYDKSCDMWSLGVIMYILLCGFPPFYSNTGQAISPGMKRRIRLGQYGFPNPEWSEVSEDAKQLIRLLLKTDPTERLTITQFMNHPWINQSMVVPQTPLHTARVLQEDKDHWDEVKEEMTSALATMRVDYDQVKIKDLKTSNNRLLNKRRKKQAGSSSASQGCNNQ
T1 sequence (P49137 46-400 limits assumed): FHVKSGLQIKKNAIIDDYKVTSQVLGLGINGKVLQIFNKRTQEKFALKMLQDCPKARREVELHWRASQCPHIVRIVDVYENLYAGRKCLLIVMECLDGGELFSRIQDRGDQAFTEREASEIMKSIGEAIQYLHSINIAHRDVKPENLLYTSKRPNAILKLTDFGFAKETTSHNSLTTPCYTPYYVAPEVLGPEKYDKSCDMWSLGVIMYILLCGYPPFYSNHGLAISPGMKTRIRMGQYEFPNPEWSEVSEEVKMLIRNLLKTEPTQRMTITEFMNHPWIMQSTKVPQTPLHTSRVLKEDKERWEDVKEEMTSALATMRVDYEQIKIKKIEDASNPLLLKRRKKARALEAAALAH
SAPK2a (h) (p38α), sequence (Q16539 whole entry): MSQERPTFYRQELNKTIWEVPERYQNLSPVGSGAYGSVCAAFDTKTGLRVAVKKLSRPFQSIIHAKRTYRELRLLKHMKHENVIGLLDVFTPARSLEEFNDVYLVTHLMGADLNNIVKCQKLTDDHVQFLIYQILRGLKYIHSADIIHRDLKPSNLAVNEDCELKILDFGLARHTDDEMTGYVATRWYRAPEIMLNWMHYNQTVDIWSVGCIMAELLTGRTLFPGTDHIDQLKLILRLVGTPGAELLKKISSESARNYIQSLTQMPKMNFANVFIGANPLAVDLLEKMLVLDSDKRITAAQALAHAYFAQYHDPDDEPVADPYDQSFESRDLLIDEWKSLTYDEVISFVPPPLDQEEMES
ROCK-I (h) (Rho-associated serine/threonine kinase), sequence (Q13464 17-535 limits assumed): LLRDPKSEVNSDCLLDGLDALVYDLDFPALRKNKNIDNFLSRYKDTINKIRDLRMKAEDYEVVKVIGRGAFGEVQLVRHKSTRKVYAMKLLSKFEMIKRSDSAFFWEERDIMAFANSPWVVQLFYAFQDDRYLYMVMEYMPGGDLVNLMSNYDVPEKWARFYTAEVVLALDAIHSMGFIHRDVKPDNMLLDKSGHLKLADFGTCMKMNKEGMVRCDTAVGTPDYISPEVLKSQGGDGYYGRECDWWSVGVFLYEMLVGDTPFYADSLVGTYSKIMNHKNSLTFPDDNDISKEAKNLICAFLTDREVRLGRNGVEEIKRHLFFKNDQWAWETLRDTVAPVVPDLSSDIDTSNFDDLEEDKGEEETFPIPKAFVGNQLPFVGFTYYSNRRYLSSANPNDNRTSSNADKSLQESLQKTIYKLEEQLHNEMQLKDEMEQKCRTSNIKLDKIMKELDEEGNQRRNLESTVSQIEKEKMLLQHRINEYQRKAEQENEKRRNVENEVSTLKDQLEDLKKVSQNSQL

For the molecule WLRRRIKAWLRRIKALNRQLGVAA, the “IC50 (radiometric kinase assay), fold lower than the therapeutic inhibitor peptide incorporating the PTD peptide … [SEQ ID NO: 5]” value in [1] is greater than 30 fold.
For the molecule FAKLAARLYRLARQLGVAA, the “Kinase Activity, peptide at 100 µM, radiometric assay” value (“Kinase Activity, peptide at 100 µM” for short) was 5% in test [2]; 10% in [3]; 131% in test [4]; 0% in [5]; 13% in test [6]; 1% in [7]. Moreover, the “Kinase Activity, peptide at 100 µM” value in test [8] stood at 16%; in [9] it was 25%; with SAPK2a (h) (p38α) it was 30%.
In the case of WLRRIKAWLRRIKALNRQLGVAA, the “Kinase Activity, peptide at 30 µM, radiometric assay” value in test [2] worked out at 2%; in test [3], 16%; in test [4] it was 67%; in test [5], 9%; in test [6], 12%; in test [7], 4%. The “Kinase Activity, peptide at 30 µM, radiometric assay” value in test [8] is 18%; in test [9], 0%; with SAPK2a (h) (p38α), 61%.
In the case of KAFAKLAARLYRLARQLGVAA, the “Kinase Activity, peptide at 100 µM” value in [2] stood at 8%; in [3], 17%; in test [4], 148%; in test [5], 0%; in test [6] it was 16%; in [7] it was 2%. In addition, the “Kinase Activity, peptide at 100 µM” value in test [8] was determined as 28%; in [9], 29%; with SAPK2a (h) (p38α), 59%.
Regarding YARAAARQARALNRQLGVAA, the “Kinase Activity, peptide at 300 µM, radiometric assay” value (“Kinase Activity, peptide at 300 µM” for short) was 10% in test [2]; 19% in test [3]; 81% in [4]; 8% in [5]; 68% in test [6]; 66% in [7]. Moreover, the “Kinase Activity, peptide at 300 µM” value in [8] stood at 96%; in test [9], 95%; with SAPK2a (h) (p38α) it was 100%.
Take YARAAARQARALARQLGVAA: the “Kinase Activity, peptide at 300 µM” value in test [2] is -7%; in test [3], 5%; in [4], 86%; in [5] it was 2%; in test [6] it was 23%; in test [7], 9%. Besides, the “Kinase Activity, peptide at 300 µM” value in [8] worked out at 17%; in test [9], 27%; with SAPK2a (h) (p38α), 66%.
